Reference: US20240417484A1, “ANTIGEN-BINDING POLYPEPTIDES AGAINST CD73” (UNIVERSITÄTSKLINIKUM HAMBURG-EPPENDORF, priority 2021, published 2024)
Changes are numbered by the printed parent chain.

T1: human CD73 on cells (CD73-transfected HEK cells; native on PBMCs; OCI-AML3 cells) (human, UniProt P21589 27-549)
T1 construct: also called NT5E; gene ID 4907
T1 sequence: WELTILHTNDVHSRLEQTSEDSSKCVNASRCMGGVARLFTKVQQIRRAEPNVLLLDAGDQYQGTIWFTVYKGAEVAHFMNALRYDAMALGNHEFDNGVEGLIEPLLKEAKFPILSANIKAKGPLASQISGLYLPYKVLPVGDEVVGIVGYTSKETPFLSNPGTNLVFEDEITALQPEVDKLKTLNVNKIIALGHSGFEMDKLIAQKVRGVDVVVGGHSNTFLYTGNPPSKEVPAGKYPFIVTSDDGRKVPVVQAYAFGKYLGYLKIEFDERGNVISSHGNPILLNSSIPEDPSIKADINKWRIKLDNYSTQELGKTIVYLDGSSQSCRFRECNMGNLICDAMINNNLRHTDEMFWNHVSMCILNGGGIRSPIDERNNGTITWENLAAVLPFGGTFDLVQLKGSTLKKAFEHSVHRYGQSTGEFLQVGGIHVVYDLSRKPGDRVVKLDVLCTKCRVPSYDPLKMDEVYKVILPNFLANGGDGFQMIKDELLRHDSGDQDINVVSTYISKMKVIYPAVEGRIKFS

T2: recombinant human CD73 ectodomain (aa 27-549) with C-terminal His6x tag (human, UniProt P21589 27-549)
T2 construct: also called soluble recombinant human CD73; soluble human CD73
T2 sequence: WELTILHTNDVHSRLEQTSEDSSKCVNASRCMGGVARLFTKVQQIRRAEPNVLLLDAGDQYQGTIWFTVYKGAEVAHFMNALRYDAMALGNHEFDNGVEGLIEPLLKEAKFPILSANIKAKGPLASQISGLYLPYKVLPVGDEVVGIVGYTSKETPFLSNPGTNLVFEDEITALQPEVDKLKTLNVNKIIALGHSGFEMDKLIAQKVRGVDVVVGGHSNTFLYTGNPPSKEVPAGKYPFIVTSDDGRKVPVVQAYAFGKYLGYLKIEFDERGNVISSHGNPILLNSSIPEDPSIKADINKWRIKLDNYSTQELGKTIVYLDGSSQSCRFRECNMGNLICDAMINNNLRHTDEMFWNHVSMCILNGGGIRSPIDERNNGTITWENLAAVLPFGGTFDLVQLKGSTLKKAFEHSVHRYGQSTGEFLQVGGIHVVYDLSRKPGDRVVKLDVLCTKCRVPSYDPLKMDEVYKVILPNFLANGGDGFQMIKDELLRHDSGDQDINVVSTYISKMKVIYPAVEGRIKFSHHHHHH

T3: mouse CD73 on transfected HEK cells (mouse, UniProt Q61503 29-551)
T3 construct: whole, on cells; also called murine CD73; gene ID 23959
T3 sequence (looked up): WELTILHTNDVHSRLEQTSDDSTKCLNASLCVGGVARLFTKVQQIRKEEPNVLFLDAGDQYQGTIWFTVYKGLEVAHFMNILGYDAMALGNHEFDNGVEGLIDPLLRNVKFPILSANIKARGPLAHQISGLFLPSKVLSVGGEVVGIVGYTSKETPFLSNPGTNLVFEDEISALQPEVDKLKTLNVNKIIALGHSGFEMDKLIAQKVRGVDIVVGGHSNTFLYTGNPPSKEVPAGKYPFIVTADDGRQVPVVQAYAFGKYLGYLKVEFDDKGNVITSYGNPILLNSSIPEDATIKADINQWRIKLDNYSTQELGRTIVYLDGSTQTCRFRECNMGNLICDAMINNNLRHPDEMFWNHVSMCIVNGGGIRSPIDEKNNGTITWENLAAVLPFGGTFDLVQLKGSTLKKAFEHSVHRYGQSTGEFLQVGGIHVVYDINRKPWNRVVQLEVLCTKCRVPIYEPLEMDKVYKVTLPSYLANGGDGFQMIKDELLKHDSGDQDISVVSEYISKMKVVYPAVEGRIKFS

B1: SB121 rabbit IgG hcAb (Fc fusion)
heavy: QVQLQESGGGLVQAGGSLRLSCAASGSIGSIIAMGWYRQGPGKQRELVARMFTDDGSTNYDDSVKGRFTISRDSAGTTVYLQMNSLKPEDTAVYYCNAQRRWNAYWGPGTQVTVSS
notes: not shown: hinge and Fc-domains of rabbit IgG
B2: SB139 rabbit IgG hcAb (Fc fusion)
heavy: QVQLQESGGGLVQAGGSLRLSCAASENIFNIYGMGWYRQAPGKLRDLVAKITSGGRTTYADSVKGRFTISGDNAKNTVYLQMNSLKPEDTAVYYCNSYYYWGQGTQVTVSS
notes: as for B1
B3: SB96 rabbit IgG hcAb (Fc fusion)
heavy: DVQLQASGGGLVQPGGSLRLSCTASGFTLDYLSIGWFRQVPGKEREGVSCINSSGGSTNYADSLKGRLTISRDNAKNTVYLQMNSLKPEDTAVYYCAAHKYYYCSNKVEVFDYWGQGTPVTVSS
notes: VHH fused upstream of hinge and Fc of rabbit IgG; also called Nb-rbIgG hcAb SB96; not shown: hinge and Fc-domains of rabbit IgG
B4: SB143 rabbit IgG hcAb (Fc fusion)
heavy: QVQLVESGGGLVQAGGSLRLSCAASGRTFSRSTMGWFRQAPGKERVFVAAIRWIGGTTTYGDSVKGRFTISVDNAKNTLYLQMNSLKPEDTAVYYCAATAGGPYYLGGRDILYDYWGQGTQVTVSS
notes: as for B1
B5: SB141 rabbit IgG hcAb (Fc fusion)
heavy: QVQLVESGGGLVQPGGSLRLSCAASGFTFINYHMSWLRQAPGKGLEWVSEIHSRGDITSYTNSVKGRFTISRDNAKNTLYLQMNSLKFDDTAVYYCARSRDLFNEGEYDYWGRGTQVTVSS
notes: as for B1
B6: SB116 rabbit IgG hcAb (Fc fusion)
heavy: QVKLQESGGGRVQTGGSLRLSCAASGISFSITTMYWYRQAPGEQRQLVALITDRGNTYYVDSVKGRFTISRDDSKNTVYLQMNDLKPEDTAVYFCNSIPGNDWGQGTQVTVSS
notes: also called SB116-rbFc; dimeric SB116 Fc construct; not shown: hinge and Fc-domains of rabbit IgG
B7: SB144 rabbit IgG hcAb (Fc fusion)
heavy: B4 heavy with R31G, V46A, T58A, T59K, V72I, Y104D, L112V
notes: as for B1

target: T1, human CD73 on cells (CD73-transfected …); assay: flow cytometry, human CD73-expressing cells; competitor: human IgG hcAb SB121
Method: (§1) The binding specificities of the purified hcAbs were determined by flow cytometry using HEK cells transiently co-transfected with expression vectors for GFP and either mouse CD73, human CD73 or a control protein (CD39). 1×10⁶ cells were incubated with 10 μl of the Nb-rbIgG hcAb containing HEK-6E cell supernatants for 30 min at 4° C. […] The cells were resuspended in PBS and analyzed by flow cytometry on FACS Canto or FACS Celesta (BD Biosciences, Heidelberg). Data evaluation was conducted using the software FlowJo (Treestar, Stanford, US).
(§2) To evaluate the epitopes on the CD73 protein recognized by different VHHs, representative rabbit IgG hcAbs were binned against a set of human IgG hcAbs, and bound hcAbs were detected with a PE-conjugated anti-rabbit IgG secondary antibody. Cells were pre-incubated with excess human IgG hcAbs for […] at RT to block specific epitopes before addition of rabbit IgG hcAbs as detectors and further incubation for 15 min at RT. Cells were washed, and bound antibodies were detected with PE-conjugated anti-rabbit IgG polyclonal antibody. Cells were washed and analyzed by flow cytometry on a BD-FACS Canto. Data were analyzed using the FlowJo software (Treestar). Lack of blockade by a non-binding control human IgG hcAb served as negative control (unblocked), and blockade of binding with the same VHH carrying human IgG hcAb as the rabbit IgG hcAb used for detection served as positive controls for blocking. Values for blocking were determined by comparing the mean fluorescence intensities (MFIs) of PE staining of transfected cells for unblocked vs blocked rabbit hcAbs using the formula: inhibition (%)=100−(MFI (blocked)/MFI MFI(unblocked)*100). The values were rounded to whole percentages.

Row | Binder | percent inhibition of binding [%]
1 | B1 | 69
2 | B2 | 3
3 | B3 | -29
4 | B4 | 13
5 | B5 | -1
6 | B6 | 6

target: T2, recombinant human CD73 ectodomain (aa …); assay: BLI (Octet), immobilized Nb-rbIgG hcAb, soluble human CD73 as analyte
Method: The binding off-rate constants of bivalent hcAbs to human and mouse CD73 protein were determined by […] kinetic analysis on Octet RED96 (ForteBio). Immobilization of rabbit IgG hcAbs on the protein A-biosensor surface was done in HEK-6E cell supernatant, and regeneration of analytes was done with 100 mM Glycin pH=2.5. Recombinant mouse or human CD73 ectodomain was used as analytes and tested at a saturating dose of 200 ng/μl. Sensorgrams were fitted using least square regression in association than dissociation Model in Prism8 (Graphpad).

Row | Binder | koff [s⁻¹]
7 | B1 | 0.022
8 | B2 | 0.046
9 | B3 | 3.9e-05
10 | B4 | 0.0013
11 | B7 | 0.00023
12 | B5 | 0.00045
13 | B6 | 0.00017

target: T1, human CD73 on cells (CD73-transfected …); assay: flow cytometry, human CD73-expressing cells; competitor: human IgG hcAb SB143
Method: as §1, §2

Row | Binder | percent inhibition of binding [%]
14 | B1 | 85
15 | B2 | 77
16 | B3 | 70
17 | B4 | 91
18 | B5 | 66
19 | B6 | 65

target: T1, human CD73 on cells (CD73-transfected …); assay: flow cytometry, human CD73-expressing cells; competitor: human IgG hcAb SB116
Method: as §1, §2

Row | Binder | percent inhibition of binding [%]
20 | B1 | 75
21 | B2 | 75
22 | B3 | 73
23 | B4 | 97
24 | B5 | 16
25 | B6 | 72

target: T1, human CD73 on cells (CD73-transfected …); assay: flow cytometry, human CD73-expressing cells; competitor: IPH5301
Method: as §1, §2

Row | Binder | percent inhibition of binding [%]
26 | B1 | 77
27 | B2 | 66
28 | B3 | 90
29 | B4 | 99
30 | B5 | 40
31 | B6 | 94

target: T3, mouse CD73 on transfected HEK cells; assay: specificity column, binding to human (h) and mouse (m) CD73
Method: as §1

Row | Binder | binding result
32 | B1 | binds
33 | B2 | binds
34 | B3 | binds
35 | B7 | binds
36 | B6 | binds

target: T1, human CD73 on cells (CD73-transfected …); assay: flow cytometry, human CD73-expressing cells; competitor: human IgG hcAb SB139
Method: as §1, §2

Row | Binder | percent inhibition of binding [%]
37 | B1 | 0
38 | B2 | 50
39 | B3 | -25
40 | B4 | 16
41 | B5 | -7
42 | B6 | 2

target: T1, human CD73 on cells (CD73-transfected …); assay: flow cytometry, human CD73-expressing cells; competitor: human IgG hcAb SB141
Method: as §1, §2

Row | Binder | percent inhibition of binding [%]
43 | B1 | 77
44 | B2 | 47
45 | B3 | 17
46 | B4 | 35
47 | B5 | 84
48 | B6 | 47

target: T1, human CD73 on cells (CD73-transfected …); assay: flow cytometry, human CD73-expressing cells; competitor: human IgG hcAb SB96
Method: as §1, §2

Row | Binder | percent inhibition of binding [%]
49 | B1 | 53
50 | B2 | 76
51 | B3 | 100
52 | B4 | 100
53 | B5 | 13
54 | B6 | 100

target: T1, human CD73 on cells (CD73-transfected …); assay: flow cytometry, human CD73-expressing cells; competitor: MEDI9447
Method: as §1, §2

Row | Binder | percent inhibition of binding [%]
55 | B1 | 74
56 | B2 | 73
57 | B3 | 92
58 | B4 | 98
59 | B5 | 26
60 | B6 | 97
